Assay in all cases: ELISA
Common to all, as to conditions: one partner purified
Background: In an ELISA, binding on a coated surface is turned into a signal by an enzyme label.

The target of assay [1] is T1, recombinant A/California/04/2009 H1N1 HA (Influenza A virus A/California/04/2009 …, UniProt C3W5S1, strain).
T1 construct: source: bought: Sino Biological Inc

For another assay, the target named is T2, bovine serum albumin (Bos taurus, UniProt P02769).
T2 construct: also called BSA

Assay [2] deals with recombinant A/Anhui/1/05 (H5N1) HA (Influenza A virus A/Anhui/1/2005 (H5N1), UniProt Q1WDM0, strain).
Assay [3] has as its target recombinant A/Turkey/1/2005 (H5N1) HA (Influenza A virus …, UniProt Q207Z6, strain).
Assay [4] deals with recombinant A/Netherlands/219/03 (H7N7) HA (Influenza A virus …, UniProt Q6VMK1, strain).

T2 sequence (P02769 25-607): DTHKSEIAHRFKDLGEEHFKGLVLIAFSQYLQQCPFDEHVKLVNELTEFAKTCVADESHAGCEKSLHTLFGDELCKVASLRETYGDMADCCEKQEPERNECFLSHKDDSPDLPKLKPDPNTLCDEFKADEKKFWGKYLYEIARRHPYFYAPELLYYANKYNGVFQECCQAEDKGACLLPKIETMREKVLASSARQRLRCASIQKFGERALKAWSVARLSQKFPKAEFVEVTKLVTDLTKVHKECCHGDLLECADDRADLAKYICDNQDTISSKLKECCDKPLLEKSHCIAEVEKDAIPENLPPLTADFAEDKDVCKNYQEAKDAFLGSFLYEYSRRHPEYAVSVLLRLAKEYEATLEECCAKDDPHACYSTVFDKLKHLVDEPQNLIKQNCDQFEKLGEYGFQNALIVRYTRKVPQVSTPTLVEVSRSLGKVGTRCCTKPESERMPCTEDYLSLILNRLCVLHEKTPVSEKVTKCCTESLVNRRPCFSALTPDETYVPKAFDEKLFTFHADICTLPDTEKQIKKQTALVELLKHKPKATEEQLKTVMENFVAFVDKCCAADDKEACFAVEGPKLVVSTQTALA

B1: A3 Fab displayed on phage (Fab, V domains shown)
VH: QVTLKESGPGILKPSQTLSLTCSFSGFSLSTSGMGVGWIRQSSGKGLEWLANIWWDDDKYYNPSLKSQLTISKDTSRNQVFLKITSVDTADTATYYCARRGEYDAMDYWGQGTSVTVSS
VL: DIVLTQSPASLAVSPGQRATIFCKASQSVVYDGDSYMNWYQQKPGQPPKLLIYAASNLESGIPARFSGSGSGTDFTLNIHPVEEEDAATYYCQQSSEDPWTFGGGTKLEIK
notes: also called clone A3; Fab-phage A3; source: E. coli TG-1 with helper phage KM13, phage PEG-precipitated
Take B1: the binding result in assay [1] is “no binding”; with bovine serum albumin, “no binding”; in assay [2], “binds”; in assay [3], “binds”; in assay [4], “no binding”.

B2: A4 Fab displayed on phage (Fab, V domains shown)
VH: QVTLKESGPGILKPSQTLSLTCSFSGFSLSTSGMGVGWIRQPSGKGLEWLANIWWDDDKYYNPSLKSQLTISKDTSRNQVFLKITSVDTADTATYYCARRGKYDSMDYWGQGTSVTVSS
VL: DIVLTQSPASLAMSLGQRATISCKASQSVVYDGDSYMNWYQQKPGQPPKLLIYAASNLESGIPARFSGSGSGTDFTLNIHPVEEEDAATYYCQQSSEDPWTFGGGTKLEIK
notes: also called clone A4; Fab-phage A4; source: E. coli TG-1 with helper phage KM13, phage PEG-precipitated
As for B2, the binding result is reported as “no binding” in assay [1]; “no binding” in the assay with bovine serum albumin; “binds” in assay [2]; “binds” in assay [3]; “no binding” in assay [4].

B3: D8 Fab displayed on phage (Fab, V domains shown)
VH: QVTLKESGPGILKPSQTLSLTCSFSGFSLSTPGMGVGWIRQPSGKGLEWLANIWWDDDKYYNPSLKSQLTISKDTSRNQVFLKITSVDTTDTATYYCARRGNYDAMDYWGQGTSVTVSS
VL: DIVLTQSPASLAMSLGQRATISCKASQSVVYDGDSYMNWYQQKPGQPPKLLIYAASNLESGIPARFSGSGSGTDFTLNIHPVEEEDAATYYCQQSSEDPWTFGGGTKLEIK
notes: also called clone D8; Fab-phage D8; source: E. coli TG-1 with helper phage KM13, phage PEG-precipitated
Turning to B3, the binding result in assay [1] is “no binding”; in the assay with bovine serum albumin it was “no binding”; in assay [2] it was “binds”; in assay [3], “binds”; in assay [4], “no binding”.

B4: D4 Fab displayed on phage (Fab, V domains shown)
VH: QVTLKESGPGILKPSQTLSLTCSFSGFSLNTSGMGVGWIRQPSGKGLEWLANIWWDDDKYYNPSLKSHLTISKDTSGNQVFLKITSVDTADSATYYCARRGDYDSLDYWGQGTSVTVSS
VL: DIVLTQSPGSLSVSLGQRATISCKASQSVDYDGDSYMNWYQQKPGQPPKLLIYAASNLESGIPARFSGSGSGTDFTLNIHPVEEEDAATYYCQQSSEDPWTFGGGTKLEIK
notes: also called clone D4; Fab-phage D4; source: E. coli TG-1 with helper phage KM13, phage PEG-precipitated
On to B4, for which the binding result in assay [1] was “no binding”; in the assay with bovine serum albumin, “no binding”; in assay [2] it was “binds”; in assay [3] it was “binds”; in assay [4], “no binding”.

For the origin of these results see article PMC3618430 (PLoS ONE, 2013).
